Patent US20260152568A1 (NECTIN THERAPEUTICS, published 2026)

T1: human PVR (SPR of the humanized variants, Example 5) (human, UniProt P15151 21-343)
T1 sequence: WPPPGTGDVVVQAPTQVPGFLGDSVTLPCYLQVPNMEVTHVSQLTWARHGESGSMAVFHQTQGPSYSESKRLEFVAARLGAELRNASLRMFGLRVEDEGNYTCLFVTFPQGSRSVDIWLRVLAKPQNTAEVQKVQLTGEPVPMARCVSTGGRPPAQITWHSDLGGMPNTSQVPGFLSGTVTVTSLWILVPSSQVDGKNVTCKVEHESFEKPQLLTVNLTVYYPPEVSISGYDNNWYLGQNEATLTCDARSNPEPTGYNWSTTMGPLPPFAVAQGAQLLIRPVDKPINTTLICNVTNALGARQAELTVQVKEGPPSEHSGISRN

T2: PVR conjugated to Histidine tag (PVR-HIS, Sino Cat. no. 10109-H08H) (Homo sapiens (Human), UniProt P15151 21-343)
T2 construct: Bought reagent; also called PVR-HIS tagged
T2 sequence: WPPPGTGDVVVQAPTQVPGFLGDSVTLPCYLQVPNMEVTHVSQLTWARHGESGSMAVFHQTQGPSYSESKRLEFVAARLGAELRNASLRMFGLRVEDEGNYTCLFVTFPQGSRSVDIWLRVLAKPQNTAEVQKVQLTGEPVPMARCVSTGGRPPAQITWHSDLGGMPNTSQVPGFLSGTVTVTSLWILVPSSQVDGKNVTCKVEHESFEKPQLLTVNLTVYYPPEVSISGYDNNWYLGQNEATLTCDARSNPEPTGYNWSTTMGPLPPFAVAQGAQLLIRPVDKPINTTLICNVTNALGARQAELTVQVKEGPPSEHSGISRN

T3: chlorocebus (African green monkey) PVR expressed on Vero cells (chlorocebus (African green monkey), UniProt P32506 21-417)
T3 construct: whole, on cells; also called chlorocebus PVR
T3 sequence (looked up): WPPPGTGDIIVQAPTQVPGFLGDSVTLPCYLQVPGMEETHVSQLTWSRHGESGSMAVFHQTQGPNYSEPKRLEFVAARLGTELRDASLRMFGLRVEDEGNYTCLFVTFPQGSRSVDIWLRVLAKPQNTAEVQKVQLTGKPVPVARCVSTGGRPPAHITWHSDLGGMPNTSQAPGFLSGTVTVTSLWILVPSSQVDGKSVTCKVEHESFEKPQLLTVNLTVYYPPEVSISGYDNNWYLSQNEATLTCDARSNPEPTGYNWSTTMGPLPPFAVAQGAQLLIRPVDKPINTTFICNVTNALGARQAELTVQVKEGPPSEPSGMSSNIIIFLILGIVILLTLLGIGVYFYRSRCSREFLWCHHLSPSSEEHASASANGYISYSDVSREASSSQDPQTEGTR


Experiments:
[1] = target: human poliovirus receptor (PVR, CD155) expressed on cells (human) (UniProt P15151); assay: flow cytometry, binding to PVR-expressing HEK 293 cells; relative to N56E VH0/Vκ0
[2] = target: T1, human PVR (SPR of the humanized …); assay: SPR
[3] = target: human poliovirus receptor (PVR, CD155) expressed on cells (human) (UniProt P15151); assay: flow cytometry, binding to PVR-expressing HEK 293 cells
[4] = target: T1, human PVR (SPR of the humanized …); assay: SPR; relative to N56E VH0/Vκ0
[5] = target: T2, PVR conjugated to Histidine tag …; assay: SPR (Biacore T200), antibody captured on Protein A chip, PVR-HIS as analyte, 1:1 binding
Description: (§1) Seven chimeric variants were generated by introducing a point mutation at residue asparagine N56. […] Binding was tested for the analyte PVR conjugated to Histidine tag (PVR-HIS, Sino Cat. no. 10109-H08H). Dilution range: Five point two-fold dilution from 50 nM to 3.125 nM. Conditions used: Instrument: Biacore T200 (serial no. 1909913) running Biacore T200 Evaluation Software V2.0.1. Running buffer: HBS-P+, 300 mM NaCl, 1 mg/ml BSA. Flow rate: […]. Association: 350 s, Dissociation: 800 s. Regeneration: 10 mM glycine pH 1.5. Analysis: 1:1 binding.

[6] = target: T3, chlorocebus (African green monkey) PVR …; assay: flow cytometry, 10 ug/ml antibody on Vero cells; MFI divided by the MFI of K0
Description: FIGS. 2A-2B. […] To assess maximal binding, saturating dose (10 ug/ml) of the N56 variant monoclonal antibodies (shown at the X axis) were used to stain PVR-expressing cells, and mean fluorescence intensity (MFI) values were determined by FACS analysis. […] (FIG. 2A) NCI-H1975 (human lung) cells and (FIG. 2B) Vero (African green monkey kidney) cells. Affinity shifts of >25% were considered significant.
The binding of the N56 substitution variant antibodies to cell bound PVR of human (protein id: Q92692) and chlorocebus (African green monkey, protein id: UniProtKB—P32506) was examined. FIG. 2A depicts the relative binding of all variants, which were added in saturating concentration (10 ug/ml), to NCI-H1975 cells expressing human PVR. FIG. 2B depicts the relative binding of all variants, which were added in saturating concentration (10 ug/ml), to Vero cells expressing chlorocebus PVR. […] Cell binding of the Abs was analyzed by FACS.

[7] = target: T2, PVR conjugated to Histidine tag …; assay: SPR (Biacore T200); KD divided by the KD of VH0/Vκ0 WT
Description: FIGS. 1A-1B. Affinity and competition assays of N56 substitutions. FIG. 1A. […] Biacore assay showing relative and absolute affinity of the N56 substitutions (hIgG4 variants) to PVR-HIS tagged (Sino Cat. no. 10109-H08H). Affinity shift of >25% were considered significant.
as §1

Row | Relative EC50 [1] | Kd [2] [nM] | EC50 [3] [nM] | Relative KD [4] | Kd [5] [nM] | koff [5] [s⁻¹] | kon [5] [M⁻¹ s⁻¹] | Fold change MFI [6] | Relative KD [7] | Binder
1 | 0.76 | 5.14 | 0.6 | 0.93 | – | – | – | – | – | humanized 5B9 variant VH2/VK3 (antibody, V domains shown) VH: QVQLVQSGAEVKKPGASVKISCKATGYTFSNYWIEWIKQAPGQGLEWIGEIFPGSGRINFNEKFKGRATFTADTSIDTTYMELSRLRSDDTAVYYCARTKIYGNSFDYWGQGTLVTVSS VL: DIQMTQSPSSLSASVGDRVTITCRASQDVGTAVVWYQQKPGKAPKLLIYWASSRHEGVPSRFSGSGSGTDFTLTISSLQPEDFATYFCQQYSRYPLTFGQGTKLEIK
2 | 0.72 | 7.41 | 0.57 | 1.34 | – | – | – | – | – | humanized 5B9 variant VH5/VK3 (antibody, V domains shown) VH: QVQLVQSGAEVKKPGASVKVSCKATGYTFSNYWIEWVRQAPGQGLEWMGEIFPGSGRINFNEKFKGRVTFTADTSISTAYMELSRLRSDDTAVYYCARTKIYGNSFDYWGQGTLVTVSS VL: DIQMTQSPSSLSASVGDRVTITCRASQDVGTAVVWYQQKPGKAPKLLIYWASSRHEGVPSRFSGSGSGTDFTLTISSLQPEDFATYFCQQYSRYPLTFGQGTKLEIK
3 | 0.75 | 5.11 | 0.59 | 0.92 | – | – | – | – | – | humanized 5B9 variant VH4/VK3 (antibody, V domains shown) VH: QVQLVQSGAEVKKPGASVKVSCKATGYTFSNYWIEWVRQAPGQGLEWIGEIFPGSGRINFNEKFKGRVTFTADTSISTTYMELSRLRSDDTAVYYCARTKIYGNSFDYWGQGTLVTVSS VL: DIQMTQSPSSLSASVGDRVTITCRASQDVGTAVVWYQQKPGKAPKLLIYWASSRHEGVPSRFSGSGSGTDFTLTISSLQPEDFATYFCQQYSRYPLTFGQGTKLEIK
4 | 0.82 | 5.68 | 0.64 | 1.03 | – | – | – | – | – | humanized 5B9 variant VH5/VK2 (antibody, V domains shown) VH: QVQLVQSGAEVKKPGASVKVSCKATGYTFSNYWIEWVRQAPGQGLEWMGEIFPGSGRINFNEKFKGRVTFTADTSISTAYMELSRLRSDDTAVYYCARTKIYGNSFDYWGQGTLVTVSS VL: DIQMTQSPSSLSASVGDRVTITCKASQDVGTAVVWYQQKPGKAPKLLIYWASSRHEGVPDRFSGSGSGTDFTLTISSLQPEDFADYFCQQYSRYPLTFGQGTKLEIK
5 | 0.68 | 5.42 | 0.53 | 0.98 | – | – | – | – | – | humanized 5B9 variant VH3/VK3 (antibody, V domains shown) VH: QVQLVQSGAEVKKPGASVKVSCKATGYTFSNYWIEWIKQAPGQGLEWIGEIFPGSGRINFNEKFKGRVTFTADTSISTTYMELSRLRSDDTAVYYCARTKIYGNSFDYWGQGTLVTVSS VL: DIQMTQSPSSLSASVGDRVTITCRASQDVGTAVVWYQQKPGKAPKLLIYWASSRHEGVPSRFSGSGSGTDFTLTISSLQPEDFATYFCQQYSRYPLTFGQGTKLEIK
6 | – | – | – | – | 5.12 | 0.000715 | 140000 | 1 | 1 | chimeric anti-PVR antibody 5B9 wild type, IgG4 (S241P), VH0/VK0 (antibody, V domains shown, Mouse/human chimeric antibody with human IgG4 (S241P) constant region; also called WT; parental N56 variant (VH0VK0)) VH: QVQLQQSGAELMKPGASVKISCKATGYTFSNYWIEWIKQRPGHGLEWIGEIFPGSGRINFNEKFKGKATFTADTSSDTTYMQLSSLTSADSAVYYCARTKIYGNSFDYWGQGTTLTVSP VL: DIMMTQSHKFMSTSVGDRVNITCKASQDVGTAVVWYQQKPGQSPKLLIYWASSRHNGVPDRFTGSGSGTDFTLTISNVQSEDLSDYFCQQYSRYPLTFGAGTKLELK
7 | – | – | – | – | 4.61 | 0.000701 | 152000 | 0.73 | 1.05 | VH0/Vκ0 Ser56 (antibody, V domains shown, chimeric 5B9 N56 substitution variant; also called N56S) VH: QVQLQQSGAELMKPGASVKISCKATGYTFSNYWIEWIKQRPGHGLEWIGEIFPGSGRINFNEKFKGKATFTADTSSDTTYMQLSSLTSADSAVYYCARTKIYGNSFDYWGQGTTLTVSP VL: DIMMTQSHKFMSTSVGDRVNITCKASQDVGTAVVWYQQKPGQSPKLLIYWASSRHSGVPDRFTGSGSGTDFTLTISNVQSEDLSDYFCQQYSRYPLTFGAGTKLELK
8 | – | – | – | – | 7.58 | 0.00105 | 138000 | – | 1.48 | VH0/Vκ0 Pro56 (antibody, V domains shown, chimeric 5B9 N56 substitution variant; also called N56P) VH: QVQLQQSGAELMKPGASVKISCKATGYTFSNYWIEWIKQRPGHGLEWIGEIFPGSGRINFNEKFKGKATFTADTSSDTTYMQLSSLTSADSAVYYCARTKIYGNSFDYWGQGTTLTVSP VL: DIMMTQSHKFMSTSVGDRVNITCKASQDVGTAVVWYQQKPGQSPKLLIYWASSRHPGVPDRFTGSGSGTDFTLTISNVQSEDLSDYFCQQYSRYPLTFGAGTKLELK
9 | – | – | – | – | 4.57 | 0.000701 | 154000 | 1.2 | 0.89 | VH0/Vκ0 Ala56 (antibody, V domains shown, chimeric 5B9 N56 substitution variant; also called N56A) VH: QVQLQQSGAELMKPGASVKISCKATGYTFSNYWIEWIKQRPGHGLEWIGEIFPGSGRINFNEKFKGKATFTADTSSDTTYMQLSSLTSADSAVYYCARTKIYGNSFDYWGQGTTLTVSP VL: DIMMTQSHKFMSTSVGDRVNITCKASQDVGTAVVWYQQKPGQSPKLLIYWASSRHAGVPDRFTGSGSGTDFTLTISNVQSEDLSDYFCQQYSRYPLTFGAGTKLELK
10 | – | – | – | – | 3.27 | 0.000637 | 195000 | 1.27 | 0.64 | chimeric 5B9 N56D variant, IgG4 (S241P) (antibody, name in Kabat numbering, V domains shown, Human IgG4 (S241P) constant region) VH: QVQLQQSGAELMKPGASVKISCKATGYTFSNYWIEWIKQRPGHGLEWIGEIFPGSGRINFNEKFKGKATFTADTSSDTTYMQLSSLTSADSAVYYCARTKIYGNSFDYWGQGTTLTVSP VL: DIMMTQSHKFMSTSVGDRVNITCKASQDVGTAVVWYQQKPGQSPKLLIYWASSRHDGVPDRFTGSGSGTDFTLTISNVQSEDLSDYFCQQYSRYPLTFGAGTKLELK
11 | – | 5.54 | 0.79 | 1 | 3.55 | 0.000653 | 184000 | 1.31 | 0.69 | chimeric 5B9 N56E variant, IgG4(S241P) N56E_VH0/VK0 (antibody, name in Kabat numbering, V domains shown, Human IgG4 (S241P) constant region; also called chimeric N56E mutated parental antibody) VH: QVQLQQSGAELMKPGASVKISCKATGYTFSNYWIEWIKQRPGHGLEWIGEIFPGSGRINFNEKFKGKATFTADTSSDTTYMQLSSLTSADSAVYYCARTKIYGNSFDYWGQGTTLTVSP VL: DIMMTQSHKFMSTSVGDRVNITCKASQDVGTAVVWYQQKPGQSPKLLIYWASSRHEGVPDRFTGSGSGTDFTLTISNVQSEDLSDYFCQQYSRYPLTFGAGTKLELK
12 | – | – | – | – | 4.4 | 0.000688 | 156000 | 1.19 | 0.86 | VH0/Vκ0 Thr56 (antibody, V domains shown, chimeric 5B9 N56 substitution variant; also called N56T) VH: QVQLQQSGAELMKPGASVKISCKATGYTFSNYWIEWIKQRPGHGLEWIGEIFPGSGRINFNEKFKGKATFTADTSSDTTYMQLSSLTSADSAVYYCARTKIYGNSFDYWGQGTTLTVSP VL: DIMMTQSHKFMSTSVGDRVNITCKASQDVGTAVVWYQQKPGQSPKLLIYWASSRHTGVPDRFTGSGSGTDFTLTISNVQSEDLSDYFCQQYSRYPLTFGAGTKLELK
